US20210269521A1 (L AND L BIOPHARMA, published 2021)
Numbering of substitutions follows the chain as printed. Numbers in names are those of the source. Read-outs that look alike come from different tables or passages of the source. Blank lines part the entries; values can stand above or below the binder they belong to.

How the values were obtained:
[1] = molecular target: T1, human TIM-3 extracellular domain-human IgG1 Fc fusion protein (human, UniProt Q8TDQ0 22-199); experiment: ELISA
T1 construct: Made in house or bought (ACROBiosystems TM3-H5258); also called TIM-3-hFc; not shown: human IgG1 Fc
Procedure: Goat-anti-hFc (Jackson, 109-005-008) was diluted to a concentration of 1 μg/ml with PBS buffer (pH 7.4) and added to a 96-well microplate (Corning, CLS3590-100EA) at a volume of 50 μl/well, then incubated in an incubator at 37° C. for 2 hours (Or the antigen TIM-3 was directly used to coat the microplate with a concentration of 0.5 μg/ml, and then the antibody to be tested was directly added). After discarding the liquid, a blocking solution of 5% skimmed milk (skimmed milk powder purchased from Bright) diluted with PBS was added at 200 μl per well, and the microplate was incubated for 2.5 hours at 37° C. or overnight (16-18 hours) at 4° C. for blocking. The blocking solution was discarded, and the microplate was washed 5 times with PBST buffer (PBS with pH 7.4 containing 0.05% tween-20), then 50 μl/well of 0.5 μg/ml TIM-3-hFc (Example 1) was added and incubated for 2 hours in a 37° C. incubator. After incubation, the microplate was washed 6 times with PB ST. 50 μl/well of supernatant (containing testing antibody) or different concentrations of the antibody to be tested was added, and the microplate was incubated at 37° C. for 2 hours and washed 5 times with PBST. 50 μl/well of 1:2500 diluted HRP-labeled secondary antibody (Jackson Immuno Research, 115-035-003) was added to the microplate, incubating at 37° C. for 1 hour. After washing the microplate 5 times with PBST, 50 μl/well TMB chromogenic substrate (KPL, 52-00-03) was added to the microplate, followed by incubating at room temperature for 10-15 min.
(§1) The above-mentioned TIM-3 and PD-1 bispecific antibodies of the present invention were optimized and designed using the methods of Example 2 and Example 5, and their affinity for TIM-3 and PD-1 were tested respectively.

[2] = molecular target: T1, human TIM-3 extracellular domain-human …; experiment: ELISA; remark: listed apart in the source
[3] = molecular target: T2, human TIM-3 extracellular domain-his tag protein (human, UniProt Q8TDQ0 22-199); experiment: SPR Biacore, antibody captured on Protein A, TIM-3-his in flow
T2 construct: Made in house or bought (ACROBiosystems TM3-H5229); also called TIM-3-his; Human Tim3-his; not shown: his tag
Procedure: First, Protein A (Thermo Pierce, Cat #21181) was conjugated to the biosensing chip CMS (Cat. #BR-1005-30, GE), and the chip was activated with the newly prepared 50 mM NHS (N-hydroxysuccinimide) and 200 mM EDC [1-ethyl-3-(3-dimethylaminopropyl) carbodiimide hydrochloride], then 10 μg/ml Protein A prepared with 10 mM NaAC (pH 4.0) was injected. […] The flow rate was 30 μl/min, the binding time was 180 seconds and the dissociation time is 300 seconds. Subsequently, the chip was washed for 30s with 10 mM Glycine-HCl (pH 1.5) at 30 μl/min. The data were fitted with a 1:1 Langmuir model using the software of Biacore T200 evaluation version 3.0 (GE), and the affinity value KD was obtained.

[4] = molecular target: T1, human TIM-3 extracellular domain-human …; experiment: ELISA; remark: listed apart in the source
[5] = molecular target: T2, human TIM-3 extracellular domain-his …; experiment: ELISA, human TIM-3-his
Marmoset TIM-3 = molecular target: T3, Marmoset TIM-3 (Marmoset, UniProt F7I881 21-290); experiment: ELISA
T3 sequence: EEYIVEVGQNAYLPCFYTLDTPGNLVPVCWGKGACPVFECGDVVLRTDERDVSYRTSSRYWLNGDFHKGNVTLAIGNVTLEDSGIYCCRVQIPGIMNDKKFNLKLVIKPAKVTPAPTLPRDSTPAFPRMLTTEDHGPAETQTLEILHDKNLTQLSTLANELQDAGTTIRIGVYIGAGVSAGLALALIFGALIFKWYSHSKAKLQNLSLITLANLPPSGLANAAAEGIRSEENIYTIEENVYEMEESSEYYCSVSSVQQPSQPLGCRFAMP

[6] = molecular target: T4, human PD-1 extracellular domain protein expressed in Example 1 (tag not stated) (human, UniProt Q15116 25-170); experiment: blocking ELISA, PD-1 coated, competitor biotin-labeled PD-L1
T4 construct: extracellular domain; also called PD-1 protein; not shown: human IgG1 Fc or his tag

[7] = molecular target: T4, human PD-1 extracellular domain protein …; experiment: ELISA, PD-1 coated
Procedure: PD-1 expressed in Example 1 was diluted to a concentration of 1 μg/ml with PBS buffer, pH 7.4, and added to a 96-well microplate (Corning, CLS3590-100EA) at 50 μl per well, thereby incubating in an incubator at 37° C. for 2 hours. After discarding the liquid, a blocking solution of 5% skimmed milk (Shanghai Shenggong Biological Engineering Co., Ltd., A600669-0250) diluted with PBS was added at 200 μl per well, followed by incubating at 37° C. for 3 hours or 4° C. overnight (16-18 hours)) for blocking. Subsequently, the blocking solution was discarded, and the microplate was washed 5 times with PBST buffer (pH 7.4 PBS containing 0.05% tween-20). […] Subsequently, the microplate was washed 5 times with PBST, then 50 μl/well of 1:2500 diluted HRP-labeled secondary antibody (Jackson Immuno Research, 115-035-003) was added, thereby incubating at 37° C. for 1 hour. After washing the microplate 5 times with PBST, 50 μl/well TMB chromogenic substrate (KPL, 52-00-03) was added, then incubated at room temperature for 5-10 min. Finally, 50 μl/well of 1M H₂SO₄ was added to stop the reaction. […] Go microplate reader (ThermoFisher, 51119200) was used to read the absorption value at 450 nm and the EC50 based on the OD value was calculated.
as §1

[8] = molecular target: T1, human TIM-3 extracellular domain-human …; experiment: ELISA on human TIM-3, OD450 against Log[nM] of antibody

B2: Tim3-0028 (antibody of US20170114135A1) (antibody, V domains shown)
VH: EVQLQQSVAELVRPGASVKLSCTASGFNIKTTYMHWVKQRPEQGLEWIGRIDPADDNTKYAPKFQGKATITADTSSNTAYLQLSSLTSEDAAIYYCVRDFGYVAWFAYWGQGTLVTFSA
VL: NIVMTPTPKFLPVSSGDRVTMTCRASQSVDNYVAWYQQKPGQSPKLLIYYASNRYIGVPDRFTGSGSGTDFTFTISSVQVEDLAVYFCQQHYSSPYTFGSGTKLEIK
- EC50 (Marmoset TIM-3): 36.2 nM

B3: bispecific antibody LB136 (bispecific antibody, human IgG4 S228P, kappa)
light: EIVLTQSPATLSLSPGERATISCRASKGVSTSGYSYLHWYQQKPGQAPRLLIYLASYLESGVPARFSGSGSGTDFTLTISSLEPEDFATYYCQHSRELPLTFGTGTKVEIKRTVAAPSVFIFPPSDEQLKSGTASVVCLLNNFYPREAKVQWKVDNALQSGNSQESVTEQDSKDSTYSLSSTLTLSKADYEKHKVYACEVTHQGLSSPVTKSFNRGEC
heavy: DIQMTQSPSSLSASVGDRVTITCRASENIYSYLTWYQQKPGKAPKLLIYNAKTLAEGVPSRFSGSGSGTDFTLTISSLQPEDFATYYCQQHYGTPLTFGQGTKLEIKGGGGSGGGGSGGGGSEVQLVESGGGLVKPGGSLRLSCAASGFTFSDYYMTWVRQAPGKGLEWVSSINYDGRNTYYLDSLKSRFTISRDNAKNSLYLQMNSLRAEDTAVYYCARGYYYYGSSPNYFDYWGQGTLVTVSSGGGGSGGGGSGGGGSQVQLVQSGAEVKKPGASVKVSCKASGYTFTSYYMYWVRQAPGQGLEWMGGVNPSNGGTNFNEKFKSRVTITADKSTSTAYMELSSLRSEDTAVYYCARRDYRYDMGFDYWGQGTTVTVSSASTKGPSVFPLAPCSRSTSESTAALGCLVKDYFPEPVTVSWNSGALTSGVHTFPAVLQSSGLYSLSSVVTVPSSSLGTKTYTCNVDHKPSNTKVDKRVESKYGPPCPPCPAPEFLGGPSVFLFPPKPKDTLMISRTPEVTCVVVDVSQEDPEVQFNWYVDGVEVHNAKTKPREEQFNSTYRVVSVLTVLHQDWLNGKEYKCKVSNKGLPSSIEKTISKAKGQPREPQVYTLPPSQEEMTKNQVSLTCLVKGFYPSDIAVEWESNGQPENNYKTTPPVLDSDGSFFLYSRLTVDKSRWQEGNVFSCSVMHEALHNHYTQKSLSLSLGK
notes: ab32VL-(G4S)3-ab32VH-(G4S)3-Ba08VH-hIgG4 with Ba08VL-κ
- EC50 [1]: 0.178 nM
- IC50 [6]: 1 nM
- EC50 [7]: 0.065 nM

B4: bispecific antibody LB143 (bispecific antibody, human IgG4 S228P, kappa)
light: B3 light with I21L, T89V, E97D, T104G
heavy: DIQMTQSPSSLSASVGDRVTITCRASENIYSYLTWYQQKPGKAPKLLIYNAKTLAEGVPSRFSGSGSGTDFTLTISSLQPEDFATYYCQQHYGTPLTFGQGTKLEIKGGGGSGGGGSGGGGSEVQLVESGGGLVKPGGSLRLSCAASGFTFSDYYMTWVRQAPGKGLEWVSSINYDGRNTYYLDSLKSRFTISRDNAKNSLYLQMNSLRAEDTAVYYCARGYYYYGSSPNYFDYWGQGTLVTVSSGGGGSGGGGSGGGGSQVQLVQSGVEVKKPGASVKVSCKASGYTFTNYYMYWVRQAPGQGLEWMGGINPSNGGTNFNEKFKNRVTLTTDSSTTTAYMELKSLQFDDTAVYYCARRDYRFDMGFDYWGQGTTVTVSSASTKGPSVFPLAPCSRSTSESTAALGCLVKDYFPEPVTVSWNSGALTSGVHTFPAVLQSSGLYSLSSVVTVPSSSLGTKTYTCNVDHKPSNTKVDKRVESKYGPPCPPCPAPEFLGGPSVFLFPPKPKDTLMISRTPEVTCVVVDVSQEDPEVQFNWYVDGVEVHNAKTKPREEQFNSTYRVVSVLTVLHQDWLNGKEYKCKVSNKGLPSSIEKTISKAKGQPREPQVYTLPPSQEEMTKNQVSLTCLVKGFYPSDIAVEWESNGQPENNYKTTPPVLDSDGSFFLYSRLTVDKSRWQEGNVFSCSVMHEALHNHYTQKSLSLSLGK
notes: ab32VL-(G4S)3-ab32VH-(G4S)3-PemVH-hIgG4 with PemVL-κ
- EC50 [1]: 0.14 nM
- IC50 [6]: 1.88 nM
- EC50 [7]: 0.064 nM

Continued, values first:

- EC50 [1]: 0.087 nM
- EC50 [2]: 0.095 nM
- Kd [3]: 2.83 nM
- koff [3]: 0.00235 s⁻¹
- kon [3]: 834000 M⁻¹ s⁻¹
- EC50 [4]: 0.084 nM
- EC50 [5]: 0.11 nM
B1: humanized anti-TIM-3 antibody ab6 (antibody, IgG4, V domains shown)
VH: EVQLVESGGGLVKPGGSLRLSCAASGFTFSDYYMAWVRQAPGKGLEWVANINYDGSNTYYLDSLKSRFTISRDNAKNSLYLQMNSLRAEDTAVYYCARGLYYYGGNYFAYWGQGTLVTVSS
VL: DIQMTQSPSSLSASVGDRVTITCHASQGISSNIGWLQQKPGKAFKGLIYQGSNLEDGVPSRFSGSGSGADYTLTISSLQPEDFATYYCVQFAQFPPTFGQGTKLEIK
notes: also called ab6 intact antibody

- EC50 [1]: 0.036 nM
- Kd [3]: 1.18 nM
- koff [3]: 0.000296 s⁻¹
- kon [3]: 251000 M⁻¹ s⁻¹
- EC50 (read off the curve) [8]: ~0.2 nM
- EC50 [4]: 0.09 nM
B5: humanized anti-TIM-3 antibody ab32 (antibody, IgG4, V domains shown)
VH: EVQLVESGGGLVKPGGSLRLSCAASGFTFSDYYMTWVRQAPGKGLEWVSSINYDGRNTYYLDSLKSRFTISRDNAKNSLYLQMNSLRAEDTAVYYCARGYYYYGSSPNYFDYWGQGTLVTVSS
VL: DIQMTQSPSSLSASVGDRVTITCRASENIYSYLTWYQQKPGKAPKLLIYNAKTLAEGVPSRFSGSGSGTDFTLTISSLQPEDFATYYCQQHYGTPLTFGQGTKLEIK
notes: also called ab32 intact antibody
